One data set relates to Nob1. In words: EMSA. The settings on record: 40 mM HEPES pH 7.6, 50 mM KCl, 10 mM MgCl2, 10 min at 30 C; trace 32P RNA prefolded at 65 C in 40 mM HEPES pH 7.6, 100 mM KCl, 2 mM MgCl2; 6% acrylamide/THEM …. On the technique in general: In EMSA bound probe runs differently from free probe, usually more slowly.
Data set [1] has as its target T1, maltose-binding protein (MBP)-Rio1 (Saccharomyces cerevisiae (strain ATCC …, UniProt Q12196)).
T1 chain: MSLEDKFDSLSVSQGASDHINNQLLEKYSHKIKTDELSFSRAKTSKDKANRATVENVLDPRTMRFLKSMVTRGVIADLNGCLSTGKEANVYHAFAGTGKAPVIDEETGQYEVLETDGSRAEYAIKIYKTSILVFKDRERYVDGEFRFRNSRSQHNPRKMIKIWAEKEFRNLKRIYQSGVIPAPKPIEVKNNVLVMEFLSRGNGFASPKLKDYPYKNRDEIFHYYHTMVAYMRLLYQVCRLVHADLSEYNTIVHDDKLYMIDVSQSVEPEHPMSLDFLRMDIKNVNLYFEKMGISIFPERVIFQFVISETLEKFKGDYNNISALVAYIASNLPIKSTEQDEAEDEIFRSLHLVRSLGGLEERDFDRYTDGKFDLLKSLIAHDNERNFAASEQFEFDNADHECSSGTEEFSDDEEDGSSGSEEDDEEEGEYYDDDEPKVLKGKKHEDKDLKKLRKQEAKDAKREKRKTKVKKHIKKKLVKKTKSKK
In words: MBP pull-down (amylose resin), Coomassie SDS-PAGE; tested with AMPPNP; Rio1 binds only when Nob1 and Pno1 are both present (with AMPPNP, little to none with ADP).

A further data set deals with T2, MBP-Nob1 (Saccharomyces cerevisiae (strain ATCC …, UniProt Q08444)).
T2 chain: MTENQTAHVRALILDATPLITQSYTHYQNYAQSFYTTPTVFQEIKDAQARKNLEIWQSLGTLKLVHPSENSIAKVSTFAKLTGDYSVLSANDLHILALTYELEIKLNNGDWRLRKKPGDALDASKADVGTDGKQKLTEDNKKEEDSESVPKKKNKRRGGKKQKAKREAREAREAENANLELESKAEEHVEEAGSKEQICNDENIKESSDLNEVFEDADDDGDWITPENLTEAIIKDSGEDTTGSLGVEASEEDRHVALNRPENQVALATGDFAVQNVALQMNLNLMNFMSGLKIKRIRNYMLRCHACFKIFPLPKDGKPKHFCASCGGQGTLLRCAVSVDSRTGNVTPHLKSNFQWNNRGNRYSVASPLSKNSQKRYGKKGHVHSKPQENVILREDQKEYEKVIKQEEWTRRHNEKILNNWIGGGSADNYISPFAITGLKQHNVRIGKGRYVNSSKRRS
In words: MBP pull-down (amylose resin), Coomassie SDS-PAGE; tested with AMPPNP; Rio1 binding requires Pno1 as well as Nob1.

For another data set, the target named is T3, MBP-Pno1 (Saccharomyces cerevisiae (strain ATCC …, UniProt Q99216)).
T3 chain: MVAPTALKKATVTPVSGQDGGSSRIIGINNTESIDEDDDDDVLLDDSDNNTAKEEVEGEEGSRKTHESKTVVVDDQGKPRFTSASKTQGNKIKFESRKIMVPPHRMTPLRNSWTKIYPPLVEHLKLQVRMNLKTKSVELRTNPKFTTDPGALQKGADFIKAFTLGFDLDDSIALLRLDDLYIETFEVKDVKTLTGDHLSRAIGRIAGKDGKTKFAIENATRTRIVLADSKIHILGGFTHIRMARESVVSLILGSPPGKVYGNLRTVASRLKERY
In words: MBP pull-down (amylose resin), Coomassie SDS-PAGE; tested with AMPPNP; Rio1 binding requires Nob1 as well as Pno1.

The target in another data set is T4, Nob1–Pno1 complex (S. cerevisiae, UniProt Q08444 1-459; Q99216 1-274).
T4 construct: Nob1, S. cerevisiae, untagged, as m2; Pno1, S. cerevisiae, untagged, as m3; The two proteins were added together with MBP-Rio1 and preincubated; the complex was not isolated beforehand; also called Nob1 and Pno1
T4 sequence (looked up) 1: T2 chain
T4 sequence (looked up) 2: T3 chain
In words: pull-down; 7 μM MBP-tagged protein held on amylose resin, 20 μM untagged protein; 50 mM HEPES pH 7.5, 200 mM NaCl, 5 mM MgCl2, 2 mM AMPPNP; 4 °C; eluted with 50 mM maltose; Coomassie-stained SDS-PAGE. Particulars: both partners purified.

Data on four molecules can be found in publication PMC6934326, “A kinase-dependent checkpoint prevents escape of immature ribosomes into the translating pool” (PLoS Biology, 2019).

Molecule D-A2 (3'-ITS1 product) yielded a Kd in the data set with Nob1 of 960 nM.

B1: Nob1 (protein)
chain: T2 chain
Take B1: the binding result in data set [1] was “no binding”.

B2: maltose-binding protein (MBP)-Rio1 (enzyme, S. cerevisiae, UniProt Q12196 1-484, looked up)
chain: T1 chain
notes: Rio1, aspartate kinase, S. cerevisiae; cloned into pSV272 as a TEV-cleavable His6-MBP fusion; The tag was not cut off for this form; also called His-MBP-tagged Rio1; His6-MBP fusion protein; source: E. coli Rosetta DE3, purified (Ni-NTA, MonoQ, Superdex200)
As to B2, the binding result in the data set with MBP-Nob1 is on record as “no binding”; in the data set with MBP-Pno1, “no binding”; with Nob1–Pno1 complex, “binds”.

B3: Pno1 (protein)
chain: T3 chain
For the molecule B3, in data set [1], the binding result is on record as “no binding”.

For orientation: Kd means the equilibrium constant for the complex coming apart. Low values mean higher affinity, high ones lower affinity.
